Measured values published in article PMC11761711, “Insights into the flexibility of the domain‐linking loop in actinobacterial coproheme decarboxylase through structures and molecular dynamics simulations” (Protein Science : A Publication of the Protein Society, 2025).

Target: the molecule itself
Test: cryo-EM structure; apo-CdChdC, SEC-purified, 70 to 120 uM on grids, single-particle reconstruction with C5 symmetry, 2.27 A

B1: Corynebacterium diphtheriae coproheme decarboxylase (enzyme)
chain: MAEKLNFEELNSMQRYSQFAVFRAIPGALGSDRAEIVAQAQSFFDGLETAGKVEVRGIYDLAGCRAEADFMIWWIAEEFEEIQAAFARFRRETVLGQVSEVAWLGNSLHRPAEFNRSHLPSFIMGEIPGDWITVYPFVRSYDWYIMDPQKRRKILAEHGQAARDFPDVRANTVPAFALGDYEWMLAFEAPRLDRIVDLMHKMRYTEARLHVREETPFFTGRRVSEVSELVNVLP
notes: coproheme decarboxylase (ChdC) of Corynebacterium diphtheriae, wild type; Homopentamer; also called CdChdC; apo-CdChdC; source: recombinant, expressed and purified as described previously (Michlits et al. 2020); Ni2+ column, HRV 3C protease cleavage, SEC
stoichiometry N: 5
